# From patent US5688918, “p53as protein and antibody therefor” (Health Research, Inc.)
# B1: muscle creatine kinase promoter-enhancer p53 site (50-2 reporter, 2 copies of 50 bp) (dsDNA)
# DNA 1: TGGCAAGCCTATGACATGGCCGGGGCCTGCCTCTCTCTGCCTCTGACCCT
# DNA 2: AGGGTCAGAGGCAGAGAGAGGCAGGCCCCGGCCATGTCATAGGCTTGCCA
# How the values were obtained:
# p53 [1] = target: T1, p53 (UniProt P02340 P02340:1-390); experiment: cell_activity
# p53as (Mus musculus) = p53as (Mus musculus) (UniProt P02340); experiment: cell_activity
# Sequence of p53as (Mus musculus) (P02340 1-364): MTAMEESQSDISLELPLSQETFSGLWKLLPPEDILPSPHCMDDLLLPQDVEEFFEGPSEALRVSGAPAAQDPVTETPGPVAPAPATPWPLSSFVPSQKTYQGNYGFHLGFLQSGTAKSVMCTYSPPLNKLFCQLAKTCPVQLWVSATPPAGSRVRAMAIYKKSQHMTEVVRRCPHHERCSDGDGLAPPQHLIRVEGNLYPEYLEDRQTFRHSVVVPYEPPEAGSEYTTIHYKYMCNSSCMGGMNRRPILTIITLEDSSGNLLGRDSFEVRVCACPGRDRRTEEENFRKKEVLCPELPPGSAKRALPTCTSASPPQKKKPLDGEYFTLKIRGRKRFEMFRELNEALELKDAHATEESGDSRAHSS
# p53 [2] = target: T1, p53; experiment: cell_activity; CAT reporter, mouse (10)1 cells; conditions: tags: none; pCMVp53r; chain copies: 4
# Description: Spontaneously arising immortalized murine BALB/c embryo fibroblast (10) 1 is a p53 negative cell line which was transfected with 2 μg pSV-β-gal plasmid (Promegal), 3 μg 50-2 plasmid (Dr. Levine) which contains 2 copies of a 50 bp sequence corresponding to p53 binding site in muscle creatinine kinase promoter-enhancer upstream of a basic CAT reporter plasmid, and 5 μg pCMVp53as, pCMVp53r or pCMV vector control. Transfection was done using the calcium phosphate method. The cells were harvested 48 hors post transfection and lysed by three freeze-thaw cycles. The supernatant was assayed for CAT activity using diffusion.
# [3] = CAT reporter, human Saos-2 cells
# [4] = luciferase reporter, mouse (10)1 cells
# T1 sequence (P02340 whole entry, one chain of several): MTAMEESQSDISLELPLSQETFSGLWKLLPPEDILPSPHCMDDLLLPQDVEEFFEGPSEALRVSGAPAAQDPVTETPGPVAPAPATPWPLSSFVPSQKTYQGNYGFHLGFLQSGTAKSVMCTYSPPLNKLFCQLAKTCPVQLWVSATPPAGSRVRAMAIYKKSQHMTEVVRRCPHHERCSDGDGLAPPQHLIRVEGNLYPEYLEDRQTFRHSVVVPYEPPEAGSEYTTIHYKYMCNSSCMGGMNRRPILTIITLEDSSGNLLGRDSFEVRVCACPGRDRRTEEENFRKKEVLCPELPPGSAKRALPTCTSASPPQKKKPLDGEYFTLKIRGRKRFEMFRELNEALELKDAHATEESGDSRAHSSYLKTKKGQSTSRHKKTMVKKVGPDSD
molecule,measurement,setting,value
PG13 (13 repeats of p53 binding site),activity (fold activation),p53 [1]; [3],14
same,activity (fold activation),p53as (Mus musculus); [3],9
WAF-1 promoter (WWP-1 luciferase),activity (fold activation),p53 [1]; [4],15
same,activity (fold activation),p53as (Mus musculus); [4],14
B1,activity,p53 [2],27 fold activation
